According to the Immune Epitope Database (IEDB):

Tests used:
HLA-A*01:01 [1] = assay: IEDB peptide-MHC binding, purified MHC/direct/fluorescence; filed as Kd, often an IC50 or EC50 that approximates it; ≥ and ≤ were set here for values at or beyond the usual limits of such assays
HLA-A*02:01 [2] = assay: as above
HLA-A*02:06 = assay: as above; details: source organism: Yersinia pestis CA88-4125
HLA-A*02:11 = assay: as above; details: source organism: Yersinia pestis CA88-4125
HLA-A*02:12 = assay: as above; details: source organism: Yersinia pestis CA88-4125
HLA-A*02:16 = assay: as above; details: source organism: Yersinia pestis CA88-4125
HLA-A*02:19 = assay: as above; details: source organism: Yersinia pestis CA88-4125
HLA-A*03:01 [3] = assay: as above
HLA-A*11:01 [4] = assay: as above
HLA-A*24:02 [5] = assay: as above; details: source organism: Yersinia pestis
HLA-A*31:01 [6] = assay: as above
HLA-A*69:01 = assay: as above
HLA-B*07:02 [7] = assay: as above
HLA-B*15:01 = assay: as above
HLA-B*18:01 [8] = assay: as above
HLA-B*27:05 = assay: as above
HLA-B*40:01 = assay: as above
HLA-B*44:02 = assay: as above; details: source organism: Yersinia pestis
HLA-B*46:01 = assay: as above
HLA-B*58:01 [9] = assay: as above
HLA-A*02:50 = assay: IEDB peptide-MHC binding, purified MHC/competitive/fluorescence; filed as Kd, often an IC50 or EC50 that approximates it; ≥ and ≤ were set here for values at or beyond the usual limits of such assays; details: source organism: Yersinia pestis Nepal516
HLA-A*68:02 [10] = assay: IEDB peptide-MHC binding, purified MHC/direct/fluorescence; filed as Kd, often an IC50 or EC50 that approximates it; ≥ and ≤ were set here for values at or beyond the usual limits of such assays; details: source organism: Listeria monocytogenes
HLA-B*08:03 = assay: as above; details: source organism: Listeria monocytogenes serotype 4b str. H7858
HLA-B*48:01 = assay: as above; details: source organism: Listeria monocytogenes
HLA-B*57:01 = assay: as above; details: source organism: Listeria monocytogenes
HLA-B*15:17 = assay: IEDB peptide-MHC binding, purified MHC/competitive/fluorescence; filed as Kd, often an IC50 or EC50 that approximates it; ≥ and ≤ were set here for values at or beyond the usual limits of such assays; details: source organism: Listeria monocytogenes serotype 4b str. CLIP 80459
HLA-B*08:01 [11] = assay: IEDB peptide-MHC binding, purified MHC/direct/fluorescence; filed as Kd, often an IC50 or EC50 that approximates it; ≥ and ≤ were set here for values at or beyond the usual limits of such assays; details: source organism: Pseudomonas fluorescens
HLA-B*35:01 [12] = assay: as above; details: source organism: Pseudomonas fluorescens
HLA-B*15:02 = assay: IEDB peptide-MHC binding, purified MHC/competitive/fluorescence; filed as Kd, often an IC50 or EC50 that approximates it; ≥ and ≤ were set here for values at or beyond the usual limits of such assays; details: source organism: Pseudomonas fluorescens
HLA-A*01:01 [13] = assay: IEDB peptide-MHC binding, purified MHC/competitive/fluorescence; ≥ and ≤ were set here for values at or beyond the usual limits of such assays; details: source organism: Homo sapiens
HLA-A*02:01 [14] = assay: as above; details: source organism: Homo sapiens
HLA-A*03:01 [15] = assay: as above; details: source organism: Homo sapiens
HLA-A*11:01 [16] = assay: as above; details: source organism: Homo sapiens
HLA-A*24:02 [17] = assay: as above; details: source organism: Homo sapiens
HLA-A*25:01 = assay: as above; details: source organism: Homo sapiens
HLA-A*29:02 = assay: as above; details: source organism: Homo sapiens
HLA-A*31:01 [18] = assay: as above; details: source organism: Homo sapiens
HLA-A*68:02 [19] = assay: as above; details: source organism: Homo sapiens
HLA-B*07:02 [20] = assay: as above; details: source organism: Homo sapiens
HLA-B*08:01 [21] = assay: as above; details: source organism: Homo sapiens
HLA-B*14:02 = assay: as above; details: source organism: Homo sapiens
HLA-B*18:01 [22] = assay: as above; details: source organism: Homo sapiens
HLA-B*35:01 [23] = assay: as above; details: source organism: Homo sapiens
HLA-B*37:01 = assay: as above; details: source organism: Homo sapiens
HLA-B*40:02 = assay: as above; details: source organism: Homo sapiens
HLA-B*44:03 = assay: as above; details: source organism: Homo sapiens
HLA-B*51:01 = assay: as above; details: source organism: Homo sapiens
HLA-B*53:01 = assay: as above; details: source organism: Homo sapiens
HLA-B*58:01 [24] = assay: as above; details: source organism: Homo sapiens
[25] = source organism: Yersinia pestis
[26] = source organism: Listeria monocytogenes
[27] = source organism: Pseudomonas fluorescens

With AMQDPNPEV the Kd (HLA-A*01:01 [1]; [25]) was at least 20 µM, the Kd (HLA-A*02:01 [2]; [25]) was 0.189 µM and the Kd (HLA-A*02:06) was 0.04 µM. It also gave a Kd (HLA-A*02:11) of 0.005 µM, a Kd (HLA-A*02:12) of 0.006 µM and a Kd (HLA-A*02:16) of at most 0.001 µM. It also gave a Kd (HLA-A*02:19) of 0.042 µM, a Kd (HLA-A*03:01 [3]; [25]) of at least 20 µM and a Kd (HLA-A*11:01 [4]; [25]) of at least 20 µM. For the same sequence, the Kd (HLA-A*24:02 [5]) was at least 20 µM, the Kd (HLA-A*31:01 [6]; [25]) was at least 20 µM and the Kd (HLA-A*69:01; [25]) was 5.29 µM. It also gave a Kd (HLA-B*07:02 [7]; [25]) of at least 20 µM, a Kd (HLA-B*15:01; [25]) of 0.319 µM and a Kd (HLA-B*18:01 [8]; [25]) of at least 20 µM. The Kd (HLA-B*27:05; [25]) was at least 20 µM, the Kd (HLA-B*40:01; [25]) was at least 20 µM and the Kd (HLA-B*44:02) was at least 20 µM. It also gave a Kd (HLA-B*46:01; [25]) of at least 20 µM, a Kd (HLA-B*58:01 [9]; [25]) of at least 20 µM and a Kd (HLA-A*02:50) of 0.0011 µM.
For EIEIEKNKK, the Kd (HLA-A*01:01 [1]; [26]) was at least 20 µM, the Kd (HLA-A*02:01 [2]; [26]) was at least 20 µM and the Kd (HLA-A*03:01 [3]; [26]) was at least 20 µM. It also gave a Kd (HLA-A*11:01 [4]; [26]) of at least 20 µM, a Kd (HLA-A*31:01 [6]; [26]) of at least 20 µM and a Kd (HLA-A*68:02 [10]) of at least 20 µM. It also gave a Kd (HLA-B*07:02 [7]; [26]) of at least 20 µM, a Kd (HLA-B*08:03) of at least 20 µM and a Kd (HLA-B*15:01; [26]) of at least 20 µM. It also gave a Kd (HLA-B*18:01 [8]; [26]) of at least 20 µM, a Kd (HLA-B*27:05; [26]) of at least 20 µM and a Kd (HLA-B*40:01; [26]) of at least 20 µM. The Kd (HLA-B*46:01; [26]) was at least 20 µM, the Kd (HLA-B*48:01) was at least 20 µM and the Kd (HLA-B*57:01) was at least 20 µM. It also gave a Kd (HLA-B*58:01 [9]; [26]) of at least 20 µM and a Kd (HLA-B*15:17) of at least 20 µM.
Work on FVSVYFSDY yielded a Kd (HLA-A*01:01 [1]; [27]) of 0.135 µM, a Kd (HLA-A*02:01 [2]; [27]) of at least 20 µM and a Kd (HLA-A*03:01 [3]; [27]) of at least 20 µM. The Kd (HLA-A*11:01 [4]; [27]) was at least 20 µM, the Kd (HLA-A*31:01 [6]; [27]) was at least 20 µM and the Kd (HLA-A*69:01; [27]) was at least 20 µM. The Kd (HLA-B*07:02 [7]; [27]) was at least 20 µM, the Kd (HLA-B*08:01 [11]) was at least 20 µM and the Kd (HLA-B*15:01; [27]) was 0.25 µM. It also gave a Kd (HLA-B*27:05; [27]) of at least 20 µM, a Kd (HLA-B*35:01 [12]) of 0.0654 µM and a Kd (HLA-B*40:01; [27]) of at least 20 µM. The Kd (HLA-B*58:01 [9]; [27]) was at least 20 µM and the Kd (HLA-B*15:02) was 0.04 µM.
With MVRVLTVIKEY the IC50 (HLA-A*01:01 [13]) was at least 20 µM, the IC50 (HLA-A*02:01 [14]) was at least 20 µM and the IC50 (HLA-A*03:01 [15]) was at least 20 µM. The IC50 (HLA-A*11:01 [16]) was 0.833 µM, the IC50 (HLA-A*24:02 [17]) was at least 20 µM and the IC50 (HLA-A*25:01) was 1.29 µM. The IC50 (HLA-A*29:02) was 0.0053 µM, the IC50 (HLA-A*31:01 [18]) was at least 20 µM and the IC50 (HLA-A*68:02 [19]) was at least 20 µM. The IC50 (HLA-B*07:02 [20]) was at least 20 µM, the IC50 (HLA-B*08:01 [21]) was at least 20 µM and the IC50 (HLA-B*14:02) was at least 20 µM. It also gave an IC50 (HLA-B*18:01 [22]) of 2.77 µM, an IC50 (HLA-B*35:01 [23]) of 0.0205 µM and an IC50 (HLA-B*37:01) of at least 20 µM. It also gave an IC50 (HLA-B*40:02) of at least 20 µM, an IC50 (HLA-B*44:03) of at least 20 µM and an IC50 (HLA-B*51:01) of at least 20 µM. For the same sequence, the IC50 (HLA-B*53:01) was at least 20 µM and the IC50 (HLA-B*58:01 [24]) was at least 20 µM.
